In patent US20240010735A1 (EISAI R AND D MANAGEMENT, published 2024):

Legend:
Assay in all cases: ELISA: Fc-His proteins (1 nM) captured on anti-6-His antibody, antibody A 10 µg/mL with human IgG 100 µg/mL, HRP anti-mouse IgG, OD450 as % of mouse EphA4-Fc-His
[1] = molecular target: T1, mouse EphA2 extracellular region-Fc-His protein (mouse, UniProt Q03145 26-538)
T1 construct: extracellular domain; Cloned into a pcDNA 3.1 vector separately from the other mouse Eph receptors; not shown: Fc; histidine tag
T1 sequence (Q03145 26-538): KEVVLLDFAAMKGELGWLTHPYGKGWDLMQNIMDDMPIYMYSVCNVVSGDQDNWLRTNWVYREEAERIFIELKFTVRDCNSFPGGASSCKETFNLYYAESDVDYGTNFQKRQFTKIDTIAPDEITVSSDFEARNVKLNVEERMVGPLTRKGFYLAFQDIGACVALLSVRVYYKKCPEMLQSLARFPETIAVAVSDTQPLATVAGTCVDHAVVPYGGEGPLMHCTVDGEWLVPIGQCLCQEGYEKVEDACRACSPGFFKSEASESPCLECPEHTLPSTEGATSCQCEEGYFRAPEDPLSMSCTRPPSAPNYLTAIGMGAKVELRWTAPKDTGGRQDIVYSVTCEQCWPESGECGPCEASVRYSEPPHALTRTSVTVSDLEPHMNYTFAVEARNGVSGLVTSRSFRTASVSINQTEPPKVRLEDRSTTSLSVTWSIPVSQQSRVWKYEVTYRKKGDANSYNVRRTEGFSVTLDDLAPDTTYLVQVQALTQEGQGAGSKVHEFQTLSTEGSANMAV
Method: (§1) Rabbit anti-6-His antibodies (Bethyl Laboratories) were coated onto the wells of a 96-well plate (Nunc). After incubating at 4° C. overnight, the wells were blocked at room temperature for 1 hour by 1% Block Ace (DS Pharma Biomedical). After washing 3 times with 0.05% Tween 20/PBS (Thermo […]), each Eph receptor of mouse extracellular region-Fc-His protein (final concentration 1 nM) was seeded into each well, and incubated at room temperature for 1 hour. After washing 3 times, human IgG solution (100 μg/mL, Sigma) and antibody A (10 μg/mL) were supplemented to the wells, and incubated at room temperature for 1 hour. Horseradish peroxidase-labeled donkey anti-mouse IgG antibody (Jackson ImmunoResearch Laboratories) was added, and incubated at room temperature for 1 hour. After washing 3 times, TMBZ (3,3′,5,5′-tetramethylbenzidine, Sigma) solution was added to the wells, and upon confirmation of modest coloring, an equal amount of quenching solution (1 N H₂SO₄, Wako Pure Chemicals) was added to the wells, and absorbance at 450 nm was read by a microplate reader (PerkinElmer).

[2] = molecular target: T2, mouse EphB4 extracellular region-Fc-His protein (mouse; human, UniProt P54761 16-539)
T2 construct: extracellular domain; not shown: Fc region of human IgG1; histidine tag
T2 sequence (looked up): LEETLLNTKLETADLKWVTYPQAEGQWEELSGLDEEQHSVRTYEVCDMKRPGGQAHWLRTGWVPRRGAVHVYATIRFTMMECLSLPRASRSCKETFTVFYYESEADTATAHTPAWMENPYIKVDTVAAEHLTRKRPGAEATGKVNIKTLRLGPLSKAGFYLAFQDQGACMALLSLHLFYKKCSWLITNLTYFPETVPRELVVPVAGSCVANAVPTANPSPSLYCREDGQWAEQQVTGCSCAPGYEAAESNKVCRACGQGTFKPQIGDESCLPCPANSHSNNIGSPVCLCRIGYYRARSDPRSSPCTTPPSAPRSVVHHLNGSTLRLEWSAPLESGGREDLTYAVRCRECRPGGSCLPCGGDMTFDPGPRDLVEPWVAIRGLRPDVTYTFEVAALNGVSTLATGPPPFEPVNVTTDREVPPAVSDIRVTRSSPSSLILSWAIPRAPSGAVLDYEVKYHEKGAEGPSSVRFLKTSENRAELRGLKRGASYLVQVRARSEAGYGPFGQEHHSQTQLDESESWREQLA
Method: as §1

[3] = molecular target: T3, mouse EphA8 extracellular region-Fc-His protein (mouse; human, UniProt O09127 27-541)
T3 construct: extracellular domain; not shown: Fc region of human IgG1; histidine tag
T3 sequence (looked up): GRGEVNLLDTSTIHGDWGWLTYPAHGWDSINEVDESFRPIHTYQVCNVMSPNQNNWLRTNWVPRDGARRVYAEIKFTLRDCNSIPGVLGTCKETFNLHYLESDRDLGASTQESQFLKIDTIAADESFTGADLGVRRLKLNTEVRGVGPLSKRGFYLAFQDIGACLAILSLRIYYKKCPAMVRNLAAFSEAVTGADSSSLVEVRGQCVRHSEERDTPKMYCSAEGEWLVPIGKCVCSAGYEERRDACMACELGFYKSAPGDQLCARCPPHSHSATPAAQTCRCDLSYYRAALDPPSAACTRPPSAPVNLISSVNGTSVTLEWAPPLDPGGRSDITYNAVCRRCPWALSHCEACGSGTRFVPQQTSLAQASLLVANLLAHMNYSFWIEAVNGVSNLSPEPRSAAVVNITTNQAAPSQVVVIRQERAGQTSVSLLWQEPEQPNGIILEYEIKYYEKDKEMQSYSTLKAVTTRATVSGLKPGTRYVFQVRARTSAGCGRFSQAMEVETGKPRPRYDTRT
Method: as §1

[4] = molecular target: T4, mouse EphA7 extracellular region-Fc-His protein (mouse; human, UniProt Q61772 28-555)
T4 construct: extracellular domain; not shown: Fc region of human IgG1; histidine tag
T4 sequence (looked up): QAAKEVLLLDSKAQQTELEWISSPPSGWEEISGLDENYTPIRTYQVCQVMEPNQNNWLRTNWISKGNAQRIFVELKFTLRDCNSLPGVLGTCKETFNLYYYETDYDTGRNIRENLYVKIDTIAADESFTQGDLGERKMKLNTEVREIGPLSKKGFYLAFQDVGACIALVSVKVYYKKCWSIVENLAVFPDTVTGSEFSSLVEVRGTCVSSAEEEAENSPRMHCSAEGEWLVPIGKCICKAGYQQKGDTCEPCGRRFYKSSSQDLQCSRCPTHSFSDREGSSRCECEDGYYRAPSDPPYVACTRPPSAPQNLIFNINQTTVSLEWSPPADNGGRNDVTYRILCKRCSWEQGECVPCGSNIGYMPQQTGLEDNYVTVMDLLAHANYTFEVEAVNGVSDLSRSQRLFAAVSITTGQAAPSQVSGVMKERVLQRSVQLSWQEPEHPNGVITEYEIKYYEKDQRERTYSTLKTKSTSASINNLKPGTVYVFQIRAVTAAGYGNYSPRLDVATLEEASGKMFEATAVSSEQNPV
Method: as §1

Measured: binding result

B1: mouse anti-EphA4 monoclonal antibody (antibody A) (antibody, mouse IgG1, kappa, V domains shown)
VH: QVQLKQSGPSLVQPSQSLSITCTVSGFSLTRYGVHWVRQSPGKGLEWLGVIWRGGSTDYNAAFMSRLSITKDNSKSQVFFKMNSLQADDTAIYYCAKESLFGVYYDYGYYSMDYWGQGTSVTVSS
VL: DIQMTQSPSSLSASLGERVSLTCRASQEISGYLSWLQQKPDGTIKRLIYAASTLDSGVPKRFSGSRSGSDYSLTISSLESEDFADYYCLQYASYPLTFGAGTKLELKR
notes: purified from hybridoma supernatant
no binding (tested: 10 µg/mL): all assays above
